Source: patent US20200397816A1, “METHODS TO TREAT INFLAMMATORY AND SMOOTH MUSCLE CELL PROLIFERATION DISORDERS” (THE TRUSTEES OF INDIANA UNIVERSITY, priority 2019, published 2020)
“Also recorded” adds a separate entry of the source.

Legend:
S1P [1] = assay: ELISA for S1P quantification in hPASMC; assay type: cell-based, human; conditions: SMCs; peaks at 1 hour and 6 hour; normalized against protein
Protocol: Equal number of hPASMC cells (1,000,000) were plated and serum starved for overnight. Cells were stimulated for in a series of time points and collected the cells. Cells were pelleted out and washed with PBS. After the lysis protein concentration was measured. S1P levels were measured using S1P ELISA kit (MyBioSource, MBS069092) following manufacturer's instructions. S1P levels were normalized against protein levels.

Il6 = Il6 transcripts qRT-PCR in hPASMC; assay type: cell-based, human; conditions: SMCs, EMAP II time course
Protocol: (§1) RAW 264.7 (ATCC) mouse macrophages and Human Embryonic Kidney (HEK) 293T cells were cultured in DMEM media with 10% fetal bovine serum […] and glutamine HEPES buffer and beta-mercaptoethanol were added to the growth medium used for RAW 264.7 macrophages. […]
(§2) Total RNA was extracted with TriZol using standard RNA extraction protocol and reverse transcribed with SuperScript III Reverse Transcriptase (Thermo Fischer Scientific). SphK1, Tnf, Il6, EGR1, Gapdh, Hprt1 transcripts were quantified using PrimePCR SYBR Green assays from BioRad. […]
(§3) Total RNA was extracted with TriZol using standard RNA extraction protocol and reverse transcribed with SuperScript III Reverse Transcriptase (Thermo Fisher Scientific). SPHK1, Tnf, Il6, EGR1, Gapdh, Hprt1 transcripts were quantified using PrimePCR SYBR Green assays from BioRad.

EGR1 = EGR1 protein western blot and immunofluorescence in hPASMC; assay type: cell-based, human; conditions: SMCs
Protocol: (§4) RAW 264.7 (ATCC) mouse macrophages and Human Embryonic Kidney (HEK) 293T cells were cultured in DMEM media with 10% fetal bovine serum […] and glutamine HEPES buffer and beta-mercaptoethanol were added to the growth medium used for RAW 264.7 macrophages. Primary human pulmonary artery smooth muscle cells (hPASMC) purchased from Lonza (Walkersville, Md.) were cultured in complete growth medium containing smooth muscle growth media-2 (SmGM-2) with 10% FBS and growth factors provided as a kit by the supplier (Lonza, (Walkersville, Md.). THP-1 human monocyte cells were cultured in RPMI 1640 with 10% FBS and glutamine Cells were cultured in a humidified atmosphere with 5% CO2 at 370 C. For all studies passages 5-14 were used for RAW 264.7 and passages 5-10 were used for hPASMCs. For treatment studies, subconfluent cells plated in multi-well plates were serum starved and if required, pretreated for with inhibitors before stimulating with 2 μg/mL recombinant EMAP II.
(§5) After appropriate treatments, protein lysates were prepared by using RIPA buffer supplemented with phosphatase and protease inhibitors (Thermo Fischer Scientific). Alpha-tubulin was used as a loading control. For nuclear and cytoplasmic fractionation, NE-PER kit from Thermo Fischer Scientific was used. Western blots were performed according to standard methods and quantified using densitometry using Image Studio Lite software from LI-COR Biosciences.
Primary hPASMCs cells or human THP-1 macrophages were seeded in Nunc Lab-Tek™ II 4-well imaging plates (Thermo Fisher Scientific) chamber well slides and cultured in growth medium. After the serum starvation cells were stimulated with EMAP II. Treated cells were rinsed with PBS and fixed with 4% paraformaldehyde at room temperature for 15 min and permeabilized with 0.1% Triton X-100 at room temperature for 10 min After washing with PBS three times, the cells were incubated with EGR1, 1amin, or pSphK1 antibody at 40C overnight. The cells were then rinsed with PBS three times and subsequently incubated with respective secondary antibody conjugated with Alex Fluor 647 and 488 or Phalloidin 488 at room temperature for 1 h. The cells were rinsed with PBS three times and coverslips were mounted with SlowFade Gold Antifade Mountant with DAPI (Thermo Fischer Scientific) and the cells were examined under Olympus microscope with 40× for EGR1 expression and with 60× for pSphK1 water immersion.
Knockdown of endogenous EGR1 was carried out by transfecting with 25 nM final concentration of ON-TARGETplus siRNAs specific for EGR1 or non-targeting control purchased from GE Dharmacon (Lafayette,CO) using Viromer Blue (Lipocalyx) per manufacturer's instructions. Cells were stimulated with EMAP II 48 h post-transfection.
(§6) RAW 264.7 (ATCC) mouse macrophages and HEK-293T (ATCC) cells were cultured in DMEM media with 10% (v/v) fetal bovine serum (FBS) and 2 mM glutamine HEPES buffer and beta-mercaptoethanol were added to the growth medium used for RAW 264.7 macrophages. […]

S1P [2] = assay: S1P, sphingosine and ceramides by HPLC/MS/MS in hPASMC; assay type: cell-based, human
Protocol: as §4
Collected cells were rinsed with PBS, pelleted and frozen at minus 80° Celsius. Sphingolipids extraction and analysis is carried out at the Medical University of South Carolina (MUSC) core facility using eight-point calibration curves generated for each target analyte by High Performance Liquid Chromatography-Tandem Mass Spectrometry (HPLC/MS/MS) system operating in positive multiple reaction-monitoring (MRM) mode engaging a gradient elution. Sphingolipids are normalized to inorganic phosphate levels determined from the Bligh & Dyer lipid extraction method. Biological samples were from different passage numbers and on different days.
as §6
Collected cells were rinsed with PBS, pelleted. […] Sphingolipids were normalized to inorganic phosphate levels in PASMC which was determined from the Bligh & Dyer lipid extraction method. […]

pSTAT3 (Y705) = assay: EMAP II induced pSTAT3 western blot in RAW 264.7 macrophages; assay type: cell-based, mouse; conditions: macrophages; EMAP II 24 hours
Protocol: as §5
as §5, with “(Thermo Fisher” for “(Thermo Fischer”

SphK1 = SphK1 transcripts qRT-PCR in hPASMC; assay type: cell-based, human; conditions: SMCs
Protocol: as §1, §2, §3

B1: EMAP II: 6x-His tagged recombinant EMAP II, cleaved C-terminal peptide of AIMP1 (SEQ ID NO: 2), pro-inflammatory cytokine (protein)
chain: IAGSADSKPIDVSRLDLRIGCIITARKHPDADSLYVEEVDVGEIAPRTVVSGLVNHVPLEQMQNRMVILLCNLKPAKMRGVLSQAMVMCASSPEKIEILAPPNGSVPGDRITFDAFPGEPDKELNPKKKIWEQIQPDLHTNDECVATYKGVPFEVKGKGVCRAQTMSNSGIK
- intracellular S1P levels (ELISA) (S1P [1]): significant bimodal pattern
- Il6 transcription (Il6): increased transcription
- EGR1 expression in whole cell lysates (EGR1; 1 to 2 hours following EMAP II): significant upregulation
- upregulation of nuclear EGR1 expression (EGR1; EMAP II 2 μg/mL, at 1 hour): 2.5 fold
- nuclear EGR1 expression by immunofluorescence vs control (EGR1; EMAP II 1 hour): significantly elevated
- extracellular S1P compared to control (S1P [2]; SMCs growth media, 1 hour of EMAP II): elevation; also recorded: elevated
- cellular sphingosine and ceramide levels (S1P [2]; SMCs, EMAP II 0-24 hours): depreciation throughout the time; also recorded: decreasing levels over time
- cellular S1P levels (HPLC/MS/MS) (S1P [2]; SMCs, EMAP II 0-24 hours, normalized against inorganic phosphates): bi-modal elevation
- STAT3 activation (pSTAT3) (pSTAT3 (Y705)): induced STAT3 activation
- time of peak SphK1 transcription after EMAP II stimulation (SphK1): 3 h
